Laboratory results published in the supplement of paper PMC10126150.
± gives the standard deviation of the averaged measurements.

System: ATP
Experiment: switch fluorescence ratio, 500 uM ATP over buffer (Cy3 cluster intensity, sum of 5 cycles each) (fold (ratio)); higher = stronger signal-on switching upon ATP binding; sequences stand for … in TCGTCGGCAGCGTCAGATGTGTATAAGAGACAGTTTTTTTTTTTTTTTTTTTTTTTTT…TC
Settings: aptamer strand: ATP DNA aptamer (quencher-CACCTGGGGGAGTATTGCGGAGGAAGG + anchor), 100 nM annealed; ATP concentration: 500 uM
How it was run: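 Exposure to 500 uM ATP lasted 15 min at 22 °C before imaging, and a selection-buffer image was taken beforehand, for Cy3-labelled switching-strand clusters on a modified Illumina MiSeq flow-cell annealed to 100 nM quencher-labelled ATP aptamer. Five buffer/ATP cycles were run with NaOH stripping and re-annealing between them. The fluorescence ratio per cluster is summed target-cycle over summed buffer-cycle Cy3 intensity, averaged per switch-domain sequence. Clusters outside 100-1000 RFU were excluded.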

Sequence | switch fluorescence ratio
TGGGGATTGT | 0.968 ± 0.023
TGGGGCAAGG | 1.04 ± 0.031
TGGGGCACGG | 1.09 ± 0.19
TGGGGCCTTT | 0.9981 ± 0.0045
TGGGGCTAAT | 1.02 ± 0.034
TGGGGCTCTT | 1 ± 0.013
TGGGGCTTTG | 1.03 ± 0.026
TGGGGGACGC | 1.08 ± 0.045
TGGGGGACTC | 0.988 ± 0.023
TGGGGGAGG | 0.9974 ± 0.0058
TGGGGGAGGC | 0.973 ± 0.042
TGGGGGAGTG | 0.985 ± 0.024
TGGGGGATAT | 1.05 ± 0.052
TGGGGGATTT | 1.27 ± 0.74
TGGGGGCACG | 1 ± 0.026
TGGGGGCCAT | 0.999 ± 0.014
TGGGGGCCGA | 1.049 ± 0.0034
TGGGGGCTAT | 0.989 ± 0.053
TGGGGGCTTA | 0.99 ± 0.059
TGGGGGCTTC | 0.9896 ± 0.0091
TGGGGGGAAA | 1.01 ± 0.054
TGGGGGGAGC | 1 ± 0.022
TGGGGGGATA | 0.994 ± 0.045
TGGGGGGCAG | 0.969 ± 0.017
TGGGGGGCAT | 1.07 ± 0.19

Sequence | switch fluorescence ratio
TGGGGGGCTG | 0.983 ± 0.048
TGGGGGGGCG | 0.998 ± 0.04
TGGGGGGGGC | 1.01 ± 0.034
TGGGGGGGGT | 1.02 ± 0.18
TGGGGGGGTA | 0.991 ± 0.026
TGGGGGGTCC | 1.01 ± 0.039
TGGGGGGTGA | 0.997 ± 0.049
TGGGGGTAAC | 1.1 ± 0.18
TGGGGGTACT | 1.01 ± 0.011
TGGGGGTATC | 0.978 ± 0.024
TGGGGGTCGC | 1.01 ± 0.019
TGGGGGTGAA | 1.02 ± 0.018
TGGGGGTGAC | 1.04 ± 0.038
TGGGGGTGCT | 1 ± 0.013
TGGGGGTTAG | 1.01 ± 0.021
TGGGGGTTGA | 1.01 ± 0.028
TGGGGTAAAG | 1.01 ± 0.033
TGGGGTAAGG | 1.01 ± 0.022
TGGGGTAGGG | 0.998 ± 0.026
TGGGGTAGTG | 1.01 ± 0.025
TGGGGTATAG | 1.01 ± 0.018
TGGGGTCAAG | 0.991 ± 0.01
TGGGGTCTAG | 0.969 ± 0.01
TGGGGTCTGG | 0.976 ± 0.026
TGGGGTCTGT | 0.993 ± 0.02

Sequence | switch fluorescence ratio
TGGGGTGCAG | 1.03 ± 0.017
TGGGGTGCAT | 0.993 ± 0.051
TGGGGTGTTT | 0.983 ± 0.045
TGGGGTTATA | 1.02 ± 0.023
TGGGGTTGGT | 0.993 ± 0.018
TGGGGTTGTC | 0.993 ± 0.034
TGGGGTTTGC | 0.991 ± 0.032
TGGGTAAGGT | 0.993 ± 0.028
TGGGTAATCA | 0.981 ± 0.036
TGGGTAGAAA | 0.975 ± 0.032
TGGGTAGGCG | 1.02 ± 0.016
TGGGTATAAA | 0.976 ± 0.029
TGGGTATAAC | 1 ± 0.018
TGGGTATACG | 1.01 ± 0.049
TGGGTATATT | 0.987 ± 0.011
TGGGTATGT | 1.03 ± 0.0087
TGGGTATTTT | 1.01 ± 0.026
TGGGTCAATA | 1.03 ± 0.054
TGGGTCCGCG | 1.123 ± 0.0092
TGGGTCCTTG | 0.9894 ± 0.0014
TGGGTGAAGC | 0.991 ± 0.059
TGGGTGCGCG | 1.014 ± 0.0063
TGGGTGCGGT | 0.991 ± 0.012
TGGGTGGGCC | 0.981 ± 0.023
TGGGTGTCGG | 1.04 ± 0.019

Sequence | switch fluorescence ratio
TGGGTGTGGT | 1 ± 0.025
TGGGTGTTAA | 0.974 ± 0.055
TGGGTGTTGG | 1.01 ± 0.057
TGGGTTAACA | 0.991 ± 0.018
TGGGTTACCT | 1.05 ± 0.01
TGGGTTAGCT | 1.04 ± 0.039
TGGGTTAGTG | 0.962 ± 0.017
TGGGTTCGAT | 1.02 ± 0.015
TGGGTTGATG | 0.959 ± 0.023
TGGGTTGGCA | 0.987 ± 0.029
TGGGTTGTCG | 1.02 ± 0.016
TGGGTTGTGT | 0.988 ± 0.028
TGGGTTTCTA | 0.964 ± 0.021
TGGGTTTGCG | 0.982 ± 0.021
TGGGTTTGGT | 1.01 ± 0.014
TGGGTTTTAG | 0.977 ± 0.013
TGGTAAAGTG | 1.08 ± 0.1
TGGTAATGGG | 1.01 ± 0.049
TGGTAATTGG | 0.98 ± 0.01
TGGTACGTAG | 1.03 ± 0.034
TGGTACGTGG | 0.974 ± 0.032
TGGTAGAGTT | 1 ± 0.016
TGGTAGCAGT | 0.989 ± 0.037
TGGTAGGGAA | 0.982 ± 0.014
TGGTATAGTA | 0.993 ± 0.019

Sequence | switch fluorescence ratio
TGGTATATTA | 0.983 ± 0.027
TGGTATCGGA | 0.977 ± 0.021
TGGTATGCGT | 1.02 ± 0.024
TGGTATTATT | 0.998 ± 0.024
TGGTATTGCT | 0.9955 ± 0.0098
TGGTCCAGTG | 1.03 ± 0.089
TGGTCCTGGT | 0.997 ± 0.019
TGGTCGCCGT | 0.978 ± 0.14
TGGTCGGTCT | 1.07 ± 0.074
TGGTCGTCGG | 0.985 ± 0.037
TGGTGAAAGA | 1.01 ± 0.029
TGGTGAAAGT | 0.982 ± 0.025
TGGTGAACGT | 1 ± 0.053
TGGTGACTAG | 0.967 ± 0.024
TGGTGCATTT | 1.06 ± 0.14
TGGTGCTAAG | 1.03 ± 0.02
TGGTGGAGTC | 1.02 ± 0.046
TGGTGGATGG | 1.22 ± 0.29
TGGTGGCTGG | 0.989 ± 0.028
TGGTGGGCGA | 1.04 ± 0.058
TGGTGGGGGA | 0.987 ± 0.015
TGGTGGGTGC | 1.04 ± 0.044
TGGTGGTCGC | 0.9778 ± 0.0044
TGGTGTAAGA | 1.04 ± 0.025
TGGTGTAAT | 1 ± 0.03

Sequence | switch fluorescence ratio
TGGTGTTTGG | 0.979 ± 0.032
TGGTTAAAAA | 0.98 ± 0.049
TGGTTAATGC | 1.48 ± 0.1
TGGTTAATGG | 0.989 ± 0.038
TGGTTACATG | 1.02 ± 0.014
TGGTTAGAAT | 0.986 ± 0.024
TGGTTAGTGT | 1.01 ± 0.057
TGGTTATGGG | 0.985 ± 0.022
TGGTTATGTT | 1.02 ± 0.023
TGGTTATTGT | 0.974 ± 0.032
TGGTTCGAGA | 0.979 ± 0.025
TGGTTCGTTA | 1 ± 0.05
TGGTTCGTTT | 0.995 ± 0.055
TGGTTCTCGA | 0.987 ± 0.012
TGGTTCTGGG | 0.973 ± 0.013
TGGTTCTTAA | 1.01 ± 0.041
TGGTTGCTGA | 1 ± 0.033
TGGTTGGGTT | 1 ± 0.021
TGGTTGGTTG | 0.988 ± 0.02
TGGTTGTACG | 1.01 ± 0.027
TGGTTGTGCG | 1.04 ± 0.018
TGGTTGTTGG | 0.95 ± 0.02
TGGTTTAAAT | 1.04 ± 0.054
TGGTTTAGCG | 0.964 ± 0.03
TGGTTTCGGT | 0.9903 ± 0.0017

Sequence | switch fluorescence ratio
TGGTTTGATT | 1.003 ± 0.0064
TGGTTTGGCG | 1.02 ± 0.18
TGGTTTGGTG | 0.985 ± 0.034
TGGTTTTCTG | 1.03 ± 0.051
TGGTTTTGAT | 1.001 ± 0.0047
TGGTTTTGC | 1.01 ± 0.023
TGGTTTTGTT | 1.01 ± 0.058
TGGTTTTTCC | 1.11 ± 0.12
TGGTTTTTT | 0.998 ± 0.03
TGTAAAAAT | 1.01 ± 0.042
TGTAAAGGGG | 1.01 ± 0.029
TGTAAATGTG | 1 ± 0.028
TGTAACTGTG | 1.15 ± 0.028
TGTAAGGTTT | 1.01 ± 0.024
TGTAAGTAGG | 1.04 ± 0.025
TGTAATGGGG | 0.966 ± 0.015
TGTAATTCTA | 1.011 ± 0.0032
TGTACCTTTA | 1.04 ± 0.038
TGTACGGAGG | 1.04 ± 0.057
TGTACTATGC | 1.06 ± 0.058
TGTAGAGGGA | 1.005 ± 0.0046
TGTAGATGGC | 1.03 ± 0.044
TGTAGATTTT | 0.981 ± 0.011
TGTAGCCAGT | 1.05 ± 0.07
TGTAGGGGCT | 0.982 ± 0.026

Sequence | switch fluorescence ratio
TGTAGGTTCT | 1.06 ± 0.051
TGTAGTCCTT | 0.949 ± 0.015
TGTAGTTTTT | 0.961 ± 0.025
TGTATATAGC | 1 ± 0.021
TGTATATCTA | 1.02 ± 0.025
TGTATCGTCG | 0.944 ± 0.023
TGTATGAGGT | 1.02 ± 0.013
TGTATGATGT | 1.03 ± 0.049
TGTATTTAAG | 0.97 ± 0.035
TGTCAAAAAC | 1.28 ± 0.29
TGTCAAAAAG | 1 ± 0.017
TGTCACAAGC | 1.02 ± 0.013
TGTCAGGGTT | 1 ± 0.014
TGTCAGTCGA | 1.002 ± 0.0036
TGTCATCTAC | 1.02 ± 0.016
TGTCATGTAT | 0.987 ± 0.021
TGTCCGGTGG | 1.01 ± 0.066
TGTCGACTTG | 0.9716 ± 0.0066
TGTCGGGATG | 1.01 ± 0.022
TGTCTACTCT | 1 ± 0.022
TGTGAAACAA | 1.01 ± 0.03
TGTGAAACGG | 0.9916 ± 0.0072
TGTGAAATAG | 1.02 ± 0.028
TGTGAACGGA | 1.004 ± 0.01
TGTGAAGGCG | 1.71 ± 1
